The target of test [1] is T1, mouse FcγRIV (mouse, UniProt A0A0B4J1G0 21-203).
T1 construct: also called mFcγRIV; not shown: purification tag of the soluble receptor (probably a His tag)
T1 sequence: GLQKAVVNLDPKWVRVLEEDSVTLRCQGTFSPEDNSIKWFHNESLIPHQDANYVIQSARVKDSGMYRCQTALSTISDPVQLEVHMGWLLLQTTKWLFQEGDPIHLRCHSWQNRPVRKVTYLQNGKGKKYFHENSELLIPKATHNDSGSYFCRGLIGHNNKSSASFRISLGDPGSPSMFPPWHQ
Description: SPR (Biacore). For orientation: In SPR one partner is held on a chip, and binding of the other changes the refractive index at the surface.

For test [2], the target named is T2, mouse FcγRI (mouse, UniProt P26151 25-297).
T2 construct: also called mFcγRI
T2 sequence (looked up): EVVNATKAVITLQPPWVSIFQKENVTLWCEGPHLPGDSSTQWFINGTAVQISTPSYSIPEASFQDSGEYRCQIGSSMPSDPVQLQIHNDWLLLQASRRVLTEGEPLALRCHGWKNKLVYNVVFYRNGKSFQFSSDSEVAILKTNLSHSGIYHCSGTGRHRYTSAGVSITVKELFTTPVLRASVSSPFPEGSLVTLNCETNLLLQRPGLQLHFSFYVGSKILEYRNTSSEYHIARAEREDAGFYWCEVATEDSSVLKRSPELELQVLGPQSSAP
Description: SPR (Biacore).

Test [3] addresses T3, human FcγRIIa type R (allotype R131) extracellular domain with C-terminal His tag (human, UniProt P12318 34-217).
T3 construct: also called FcγRIIaR
T3 chain: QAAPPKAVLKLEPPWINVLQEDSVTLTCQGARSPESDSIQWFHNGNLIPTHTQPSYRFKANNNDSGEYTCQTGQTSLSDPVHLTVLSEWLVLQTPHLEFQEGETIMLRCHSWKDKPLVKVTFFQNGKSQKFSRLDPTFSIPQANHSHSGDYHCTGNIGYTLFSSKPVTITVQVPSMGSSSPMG
Description: SPR (Biacore), captured antibody, FcγR analyte.

The target of test [4] is T4, human FcγRIIIa type V (allotype V158) extracellular domain with C-terminal His tag (human, UniProt P08637 17-208).
T4 construct: also called FcγRIIIaV; FcγRIIIa V type
T4 sequence (P08637 other isoform, or with tags, fused parts or gaps): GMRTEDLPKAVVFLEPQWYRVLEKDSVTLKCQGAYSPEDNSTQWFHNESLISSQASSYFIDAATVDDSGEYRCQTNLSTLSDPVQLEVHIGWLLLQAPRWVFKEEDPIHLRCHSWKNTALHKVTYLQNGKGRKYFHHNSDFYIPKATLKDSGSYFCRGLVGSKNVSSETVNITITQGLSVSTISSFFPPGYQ
Description: SPR (Biacore), captured antibody, FcγR analyte.

The target of test [5] is human FcγRIa extracellular domain with C-terminal His tag (human, UniProt P12314 16-292). Put plainly: SPR (Biacore), captured antibody, FcγR analyte.
human FcγRIa extracellular domain with C-terminal His tag, sequence (P12314 16-292): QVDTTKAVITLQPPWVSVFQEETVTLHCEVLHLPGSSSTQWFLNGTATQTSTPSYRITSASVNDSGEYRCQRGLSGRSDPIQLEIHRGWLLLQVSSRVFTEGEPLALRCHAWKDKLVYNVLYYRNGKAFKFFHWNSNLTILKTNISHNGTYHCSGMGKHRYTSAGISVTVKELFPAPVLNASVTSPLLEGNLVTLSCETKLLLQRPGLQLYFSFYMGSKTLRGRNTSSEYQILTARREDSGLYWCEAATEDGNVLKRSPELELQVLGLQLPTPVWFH
The target of test [6] is T5, human FcγRIIa type H (allotype H131) extracellular domain with C-terminal His tag (human, UniProt P12318 34-217).
T5 construct: also called FcγRIIaH
T5 sequence: T3 chain with R133H
Description: SPR (Biacore), captured antibody, FcγR analyte.

The target of test [7] is T6, human FcγRIIb extracellular domain with C-terminal His tag (human, UniProt P31994 43-217).
T6 sequence: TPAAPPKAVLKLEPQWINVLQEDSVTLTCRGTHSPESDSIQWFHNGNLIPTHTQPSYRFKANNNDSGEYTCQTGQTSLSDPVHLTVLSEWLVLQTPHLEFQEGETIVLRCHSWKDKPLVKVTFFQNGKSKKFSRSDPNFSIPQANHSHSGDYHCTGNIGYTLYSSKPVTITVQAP
Description: SPR (Biacore), captured antibody, FcγR analyte.

The target in test [8] is T6, human FcγRIIb extracellular domain with …. Put plainly: ratio of SPR KDs (FcγRIIaR over FcγRIIb).
In test [9] the target is T3, human FcγRIIa type R (allotype R131) …. Description: ratio of SPR KDs, reference IL6R-B3/IL6R-L.
Test [10] deals with T6, human FcγRIIb extracellular domain with …. Description: ratio of SPR KDs, reference IL6R-B3/IL6R-L.
For test [11], the target named is T7, FcγRIIb extracellular region (human, UniProt P31994 43-217).
T7 construct: extracellular domain; for crystals expressed with kifunensine and trimmed with Endo F1; also called human FcγRIIb
T7 sequence (looked up): T6 sequence
Description: SPR (Biacore), ratio of KD values.

For test [12], the target named is T8, FcγRIIaR extracellular region (human, UniProt P12318 34-217).
T8 construct: extracellular domain; also called FcγRIIa type R; FcγRIIa allotype R131
T8 sequence (looked up): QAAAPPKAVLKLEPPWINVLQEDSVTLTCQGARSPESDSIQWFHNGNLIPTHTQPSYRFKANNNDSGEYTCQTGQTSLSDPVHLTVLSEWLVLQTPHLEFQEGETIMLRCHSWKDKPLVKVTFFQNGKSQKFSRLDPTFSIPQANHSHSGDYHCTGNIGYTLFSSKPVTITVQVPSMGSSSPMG
Description: SPR (Biacore), ratio of KD values.

Test [13] concerns the target T4, human FcγRIIIa type V (allotype V158) …. Description: SPR (Biacore), captured antibody, FcγR analyte. The source holds these as a separate data set.
For test [14], the target named is T9, FcγRIIb extracellular domain with C-terminal His tag (human, UniProt P31994 43-217).
T9 construct: extracellular domain
T9 sequence (looked up): T6 sequence
Put plainly: SPR (Biacore), antibody captured, FcγR as analyte.

Test [15] has as its target T10, FcγRIa extracellular domain with C-terminal His tag (human, UniProt P12314 16-292).
T10 construct: extracellular domain
Description: SPR (Biacore), antibody captured, FcγR as analyte.

The target of test [16] is T11, FcγRIIIa type V (allotype V158) extracellular domain with C-terminal His tag (human, UniProt P08637 17-208).
T11 construct: extracellular domain; also called FcγRIIIaV; FcγRIIIa V type
T11 sequence (P08637 17-208 F176V): as the sequence (P08637 other isoform, or with tags, fused parts or gaps) above, with S179A counted along it
Put plainly: SPR (Biacore), antibody captured, FcγR as analyte.

For test [17], the target named is T12, FcγRIIa type R (allotype R131) extracellular domain with C-terminal His tag (human, UniProt P12318 34-217).
T12 construct: extracellular domain; also called FcγRIIaR; FcγRIIa R type
T12 sequence (looked up): T8 sequence (looked up)
Put plainly: SPR (Biacore), antibody captured, FcγR as analyte.

For test [18], the target named is T13, human FcRn (human, UniProt P55899 24-290; P61769 21-119, limits assumed).
T13 construct: also called human neonatal Fc receptor
Put plainly: SPR Biacore, pH 7.0. How it is done: (§1) The binding between the antibody and human FcRn under a neutral condition (pH 7.0) was analyzed with a BIACORE™ system.
T13 sequence (P55899 24-290 limits assumed, chain 1 of 2): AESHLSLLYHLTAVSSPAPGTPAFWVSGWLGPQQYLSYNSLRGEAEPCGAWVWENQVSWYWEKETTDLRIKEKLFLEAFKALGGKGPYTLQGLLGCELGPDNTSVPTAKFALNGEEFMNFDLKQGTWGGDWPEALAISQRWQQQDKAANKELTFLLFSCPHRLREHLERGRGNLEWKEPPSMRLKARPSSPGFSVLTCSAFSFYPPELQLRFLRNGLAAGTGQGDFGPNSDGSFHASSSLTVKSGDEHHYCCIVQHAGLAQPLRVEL
T13 sequence (P61769 21-119 limits assumed, chain 2 of 2): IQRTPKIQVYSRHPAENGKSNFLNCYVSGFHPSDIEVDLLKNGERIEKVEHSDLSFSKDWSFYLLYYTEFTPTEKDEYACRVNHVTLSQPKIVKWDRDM

Test [19] addresses T14, human FcRn (human, UniProt P55899 24-290; P61769 21-119, limits assumed).
T14 construct: also called hFcRn
Put plainly: SPR (Biacore), pH 7.0. On the procedure: as §1
T14 sequence (P55899 24-290 limits assumed, chain 1 of 2): as the sequence (P55899 24-290 limits assumed, chain 1 of 2) above
T14 sequence (P61769 21-119 limits assumed, chain 2 of 2): as the sequence (P61769 21-119 limits assumed, chain 2 of 2) above

The values that follow come from patent US20240279325A1 (Chugai, published 2024).

Broadly, the Kd is a measure of binding affinity in units of concentration. Low readings indicate a tighter complex, high ones a looser complex.

Residue numbers refer to the chain shown, from its start. Read-outs that look alike come from different tables or passages of the source.

T10 sequence (P12314 16-292): as the sequence (P12314 16-292) above

B1: VH3/L (WT)-mIgG1 (antibody)
heavy: QVQLQESGPGLVKPSETLSLTCAVSGHSISHDHAWSWVRQPPGEGLEWIGFISYSGITNYNPSLQGRVTISRDNSKNTLYLQMNSLRAEDTAVYYCARSLARTTAMDYWGEGTLVTVSSAKTTPPSVYPLAPGSAAQTNSMVTLGCLVKGYFPEPVTVTWNSGSLSSGVHTFPAVLQSDLYTLSSSVTVPSSTWPSETVTCNVAHPASSTKVDKKIVPRDCGCKPCICTVPEVSSVFIFPPKPKDVLTITLTPKVTCVVVDISKDDPEVQFSWFVDDVEVHTAQTQPREEQFNSTFRSVSELPIMHQDWLNGKEFKCRVNSAAFPAPIEKTISKTKGRPKAPQVYTIPPPKEQMAKDKVSLTCMITDFFPEDITVEWQWNGQPAENYKNTQPIMDTDGSYFVYSKLNVQKSNWEAGNTFTCSVLHEGLHNHHTEKSLSHSPGK
light: not shown
notes: copies: 2 + 2
As for B1, the binding result in [1] and in test [2] was “no binding” each time.

B2: IL6R-BP478/IL6R-L (antibody)
heavy: QVQLQESGPGLVKPSETLSLTCAVSGHSISHDHAWSWVRQPPGEGLEWIGFISYSGITNYNPSLQGRVTISRDNSKNTLYLQMNSLRAEDTAVYYCARSLARTTAMDYWGEGTLVTVSSASTKGPSVFPLAPCSRSTSESTAALGCLVKDYFPEPVTVSWNSGALTSGVHTFPAVLQSSGLYSLSSVVTVPSSSLGTKTYTCNVDHKPSNTKVDKRVESKYGPPCPPCPAPDLLGDDSVFLFPPKPKDTLMISRTPEVTCVVVDVSDEDGEVKFNWYVDGVEVHNAKTKPREEQDNSTYRVVSVLTVLHQDWLNGKEYKCKVSNKALPRPIEKTISKAKGQPREPQVYTLPPSRDELTKNQVSLTCLVKGFYPSDIAVEWESNGQPENNYKTTPPVLDSDGSFFLYSKLTVDKSRWQQGNVFSCSVMHEALHNHYTQESLSLSP
light: not shown
notes: copies: 2 + 2
With B2, the Kd was found to be 540 nM in test [3]; 35000 nM in test [4]; 7.7 nM in [5]; 6700 nM in [6]; 19 nM in [7]. Moreover, in test [8], the “KD(IIaR)/KD(IIb)” value was found to be 28. The “KD(IIaR) of parent polypeptide/KD(IIaR) of altered polypeptide” value in test [9] was found to be 2. Also, the “KD(IIb) of parent polypeptide/KD(IIb) of altered polypeptide” value in test [10] turned out to be 161.

B3: IL6R-BP478/IL6R-L (antibody)
heavy: B2 heavy
light: not shown
notes: copies: 2 + 2
For B3, the “fold binding relative to IL6R-BP230/IL6R-L” value in [11] was determined as 1.1 times; in test [12] it was 0.9 times.

B4: IL6R-BP462/IL6R-L (antibody, human IgG1, kappa, name in EU numbering)
heavy: QVQLQESGPGLVKPSETLSLTCAVSGHSISHDHAWSWVRQPPGEGLEWIGFISYSGITNYNPSLQGRVTISRDNSKNTLYLQMNSLRAEDTAVYYCARSLARTTAMDYWGEGTLVTVSSASTKGPSVFPLAPSSKSTSGGTAALGCLVKDYFPEPVTVSWNSGALTSGVHTFPAVLQSSGLYSLSSVVTVPSSSLGTQTYICNVNHKPSNTKVDKKVEPKSCDKTHTCPPCPAPDLLGDDSVFLFPPKPKDTLMISRTPEVTCVVVDVAEEDGEVKFNWYVDGVEVHNAKTKPREEQYNSTYRVVSVLTVLHQDWLNGKEYKCKVSNKALPRPIEKTISKAKGQPREPQVYTLPPSRDELTKNQVSLTCLVKGFYPSDIAVEWESNGQPENNYKTTPVVLDSDGSFFLYSKLTVDKSRWQQGNVFSCSVMHEALHNHYTQESLSLSP
light: not shown
notes: copies: 2 + 2
B4: the affinity in [13], expressed as Kd, was 9000 nM.

B5: IL6R-BP253/IL6R-L (antibody, human IgG1, kappa, name in EU numbering)
heavy: B4 heavy with D235E, D239G, D240P, A269E, E270H, G273P, L330F, R332A, V398P
light: not shown
notes: comparison control with existing alterations; copies: 2 + 2
Regarding B5, the Kd in [14] worked out at 11 nM; in test [15], 0.0067 nM; in [16], 3600 nM; in test [17], 2.1 nM.

B6: F414 (antibody, human IgG1, kappa)
heavy: QVQLQESGPGLVKPSETLSLTCAVSGHSISHDHAWSWVRQPPGEGLEWIGFISYSGITNYNPSLQGRVTISRDNSKNTLYLQMNSLRAEDTAVYYCARSLARTTAMDYWGEGTLVTVSSASTKGPSVFPLAPSSKSTSGGTAALGCLVKDYFPEPVTVSWNSGALTSGVHTFPAVLQSSGLYSLSSVVTVPSSSLGTQTYICNVNHKPSNTKVDKKVEPKSCDKTHTCPPCPAPELLGGPSVFLFPPKPKDTLMISRTVEVTCVVVDVSHEDPEVKFNWYVDGVEVHNAKTKPREEQYNSTYRVVSVLSVLHQDWLNGKEYKCKVSNKALPAPIEKTISKAKGQPREPQVYTLPPSRDELTKNQVSLTCLVKGFYPSDIAVEWESNGQPENNYKTTPPVLDSDGSFFLYSKLTVDKSRWQQGNVFSCSVLHEALHYHYTQKSLSLSP
light: not shown
notes: copies: 2 + 2
Regarding B6, the Kd in [18] turned out to be 110 nM.

B7: F554 (antibody, human IgG1, kappa)
heavy: B6 heavy with S241K, M254Y, S256T, V259P, S309T, V310P, L430M
light: not shown
notes: copies: 2 + 2
The molecule B7 yielded an equilibrium dissociation constant (Kd) in test [19] of 28 nM. This counts as double-digit nanomolar.
